Test results as given in article PMC9481563 (2022).
Read-outs that look alike come from different tables or passages of the source. Where no end group is shown, it is not given here. [ ]: non-standard residue; d: D form. pY = N[C@@H](Cc1ccc(OP(=O)(O)O)cc1)C(=O)O; pT = C[C@@H](OP(=O)(O)O)[C@H](N)C(=O)O; pS = N[C@@H](COP(=O)(O)O)C(=O)O

B1: CF-ppIRS1, carboxyfluorescein-labelled pY632 + pS636 IRS1 peptide (peptide)
chain: GRKGSGDYMPMSPKS
modifications: phosphotyrosine at Y632; phosphoserine at S636; C-terminal lysine-ε-carboxyfluorescein label

Experiments:
Test in all cases: FP
[1] = molecular target: T1, PIK3R1 (p85) N-terminal SH2 domain (321-433) (human, UniProt P27986 321-433)
[2] = molecular target: T2, PIK3R1 (p85) C-terminal SH2 domain (614-724) (human, UniProt P27986 614-724)
[3] = molecular target: T1, PIK3R1 (p85) N-terminal SH2 domain …; remark: listed apart in the source
[4] = molecular target: T2, PIK3R1 (p85) C-terminal SH2 domain …; remark: listed apart in the source

T2 sequence (P27986 614-724): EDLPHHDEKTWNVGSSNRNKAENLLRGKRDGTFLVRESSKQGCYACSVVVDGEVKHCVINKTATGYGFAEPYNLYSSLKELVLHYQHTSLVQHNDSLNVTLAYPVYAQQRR
T1 sequence (P27986 321-433): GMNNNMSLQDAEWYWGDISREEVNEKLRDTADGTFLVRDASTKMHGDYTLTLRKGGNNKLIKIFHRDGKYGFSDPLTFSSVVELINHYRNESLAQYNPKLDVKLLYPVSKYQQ

Row | Binder | Kd [1] | Kd [2] | Kd [3] | Kd [4]
1 | GRKGSGD[pY]MPMSPKS [p0IRS1, IRS1 peptide with phosphotyrosine only (pY632)] | 184 nM | 8.1 nM | – | –
2 | RSRLLHSD[pY]MNM[pT]PRR [ppCD28, CD28 peptide dually phosphorylated (pY191 + pT195)] | – | – | 285 nM | 22.9 nM
3 | B1 | 412 nM | 10.6 nM | 383 nM | 5.7 nM
4 | GRKGSGD[pY]MPM[pS]PKS [ppIRS1, IRS1 peptide dually phosphorylated (pY632 + pS636)] | 306 nM | 5.1 nM | – | –
5 | RSRLLHSD[pY]MNMTPRR [p0CD28, CD28 peptide with phosphotyrosine only (pY191)] | – | – | 104 nM | 11 nM
